# Test results taken from US12070483B2, “Compositions and methods for treatment of acute lung injury” (THE TRUSTEES OF THE UNIVERSITY OF PENNSYLVANIA, priority 2018, dated 2024).
# Legend:
# aiPLA2 activity = molecular target: T1, aiPLA2 activity (Homo sapiens, UniProt P30041); assay: Inhibitory activity of PIP-2 after storage as dry powder at room temp.; format: biochemical; conditions: for aiPLA2 Activity: PIP-2 stored as dry powder at room temp.
# T1 sequence (P30041 1-224): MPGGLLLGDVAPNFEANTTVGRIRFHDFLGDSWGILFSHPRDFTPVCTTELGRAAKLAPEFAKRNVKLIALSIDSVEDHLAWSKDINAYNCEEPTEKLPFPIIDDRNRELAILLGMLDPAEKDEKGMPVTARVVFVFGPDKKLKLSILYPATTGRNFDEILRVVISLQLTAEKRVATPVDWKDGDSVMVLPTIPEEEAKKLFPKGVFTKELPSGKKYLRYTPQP
# Protocol: aiPLA2 activity was measured at intervals to determine how long the peptide could maintain its efficacy as an inhibitor of aiPLA2 activity. The peptide was stable for the 4 months of observation.
# ROS production in lung = assay: Lung ROS production (DFF-DA fluorescence) after IT LPS; format: in vivo, mouse; conditions: PIP-2 with IT LPS 5 μg/g; 6, 12 and 24 h
# Protocol: (§1) FIGS. 9A and 9B: PIP-2 inhibits the increased lung aiPLA2 activity and increased ROS generation after LPS administration. LPS (5 μg/g body weight) was administered by intratracheal (IT) instillation along with liposomes alone (labeled as LPS) or with PIP-2 in liposomes (labeled as +PIP-2). Control was liposomes alone without LPS (labeled as control). Mice were sacrificed at 6, 12, or 24 h after LPS and lungs were perfused in situ for 15 min with saline solution containing the fluorophore difluorofluoroscein diacetate (DFF-DA). Lungs then were homogenized and assayed for: FIG. 9A: aiPLA2 activity; FIG. 9B: fluorescence of the lung homogenate as an index of ROS production. Results are mean±SE for N=3 for A and N=4 for B. *P<0.05 vs. Control and +PIP-2 at the same time point; ΔP<0.05 vs. corresponding value at 6 h.
# To determine lung ROS production after LPS treatment, intact mice were treated with LPS (5 μg/g)±PIP-2 (2 μg/g). Mice were anesthesized at 6, 12, or 24 h after treatment with LPS and lungs in situ were cleared of blood and then perfused for […] with saline solution containing the fluorophore DFF-DA that is hydrolyzed intracellularly to DFF. Lungs were then homogenized, and fluorescence of the homogenate was measured at Ex 495 nm, Em 525 nm. Lung fluorescence was expressed as AFU per minute of perfusion with normalization to the mouse body wt.
# [1] = tested on: mechanically ventilated mice; assay: Ventilation-induced lung injury (VILI); format: in vivo, mouse; conditions: PIP-2 2 ug/g in liposomes IT at start of 6 h mechanical ventilation
# Protocol: FIG. 13: Effect of PIP-2 on ventilation-induced lung injury (VILI). Anesthetized mice were mechanically ventilated for 6 h with tidal volume 12 ml/Kg body weight with a respiratory rate 120/min, and 2 cm H2O positive end-expiratory pressure (PEEP). […] Control represents values for normal (non-ventilated) lungs. % Protection was calculated as in Table 1. Results are mean±SE for n=4. *P<0.05 for VILI+PIP vs VILI.
# Prdx6 = molecular target: T2, Prdx6 (Mus musculus, UniProt O08709); conditions: PIP-2 2 μg/g in liposomes, for at least 24 h; shown previously; cited from earlier work
# T2 construct: Lungs were harvested at intervals between 4 and 72 h after the PIP-2 administration, homogenized, and analyzed for Prdx6-PLA2 activity; from tissue; host or cells: mouse lung homogenate (wild type mice)
# T2 sequence (O08709 1-224): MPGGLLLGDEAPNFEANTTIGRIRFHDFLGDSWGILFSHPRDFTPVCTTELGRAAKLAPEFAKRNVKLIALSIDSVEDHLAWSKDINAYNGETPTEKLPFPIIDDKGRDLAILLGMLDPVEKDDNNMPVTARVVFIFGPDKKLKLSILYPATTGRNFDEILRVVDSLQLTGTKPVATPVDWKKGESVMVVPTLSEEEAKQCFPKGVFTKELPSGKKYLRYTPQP
# aiPLA2 activity of Prdx6 = molecular target: T3, aiPLA2 activity of Prdx6 (Mus musculus, UniProt O08709); assay: Lung aiPLA2 activity after IT LPS; format: in vivo; conditions: PIP-2 with IT LPS 5 μg/g; 6, 12 and 24 h
# T3 construct: from tissue; host or cells: mouse lung homogenate (wild type mice)
# T3 sequence (O08709 1-224): T2 sequence (O08709 1-224)
# Protocol: FIGS. 4A and 4B: Phospholipase A2 of Prdx6 (aiPLA2) was measured by the liberation of palmitic acid from dipalmitoylphosphatidylcholine under acidic conditions (pH 4) in the absence of Ca^2+. FIG. 4A: The effect of increasing concentration of PIP-2 on the aiPLA2 activity of recombinant human Prdx6. FIG. 4B: The effect of LPS and PIP-2 treatment on aiPLA2 activity of mouse lungs. Mice (n=3 for each condition) were treated with intratracheal LPS (2 μg/g body wt) without or with PIP-2 (2 μg/g body weight) in liposomes. Animals were sacrificed at 6,12, or 24 h after receiving LPS. Lungs were cleared of blood and homogenized.
# as §1, with “Results are mean±SE for N=3 for A and N=4 for B. *P<0.05 vs. Control and +PIP-2 at the same time point; ΔP<0.05 vs. corresponding value at 6 h.” left out
# [2] = tested on: C57Bl/6 mice, LPS-mediated lung injury; assay: Acute lung injury after intratracheal LPS (5 μg/g), lungs evaluated at 24 h; format: in vivo, mouse; conditions: LPS 5 μg/g IT, sacrifice at 24 hrs
Sequence,"aiPLA2 Activity (aiPLA2 activity; 0 days, no PIP-2 100) [nmol/min/mg prot.]",aiPLA2 Activity (aiPLA2 activity; 30 d) [nmol/min/mg prot.],aiPLA2 Activity (aiPLA2 activity; 45 d) [nmol/min/mg prot.],aiPLA2 Activity (aiPLA2 activity; 60 d) [nmol/min/mg prot.],"aiPLA2 Activity (aiPLA2 activity; 120 d, no PIP-2 at 120 d 103) [nmol/min/mg prot.]","stability as dry powder (aiPLA2 activity; room temp., 4 months of observation)",ROS-generated fluorescence of lung after LPS (ROS production in lung),effect on ventilation-induced lung injury [1],inhibition of lung aiPLA2 activity (Prdx6) [%],aiPLA2 activity of lung after LPS (aiPLA2 activity of Prdx6),"protein ([2]; PIP-4 2 μg/g IT @0 hrs, LPS alone 166) [μg protein/g wt]","TBARS ([2]; PIP-4 2 μg/g IT @0 hrs, LPS alone 374) [pmol/mg prot.]",TBARS ([2]; PIP-4 2 μg/g IV @12 hr) [pmol/mg prot.],Wet/Dry lung weight ratio ([2]; PIP-4 2 μg/g IV @12 hr)
LHDFRHQIL (Inhibitory peptide.) [PIP-2],29.7 ± 2.9,31.1 ± 1.3,31.8 ± 1.0,32.8 ± 0.9,31.9 ± 2.4,stable,dramatic decrease,protected against lung injury,~90,dramatic decrease,,,,
LYEIKHQIL (Inhibitory peptide.) [PIP-4],,,,,,,,,,,77 ± 3,78 ± 4,84 ± 2,5.94 ± 0.05
